The chains are these.
B1: GA-binding protein alpha chain, residues 172 to 250; numbered along this chain, Q06546 (parent)
chain: GYRKEQERLGIPYDPIQWSTDQVLHWVVWVMKEFSMTDIDLTTLNISGRELCSLNQEDFFQRVPRGEILWSHLELLRKY

± gives the uncertainty stated by the source.

Variants of B1 are the subject of this data set. Nature of the data set: abundance fitness (aPCA) (normalised: wild type 0, dead -1); higher = more abundant; growth selection in yeast, the domain comes from the species named. The conditions noted are these: Homo sapiens.
As to GYRKEQERLGIPYDPIQWSTDQVLHWVVWVMKEFSMTDIDLTTLNISGRELCSLNQEDFFQRVPRGEILWSHLELLDKY [R77D], the abundance fitness is -0.382 ± 0.12.
The result for GYRKEQERLGIPYDPIQWSTDQVLHWVVWVMKEFSMTDIDLTTLNISGRELCSLNQEDFFQRVPRGEILWSHLELLIKY [R77I] reads -0.23 ± 0.084; that for GYRKEQERLGIPYDPIQWSTDQVLHWVVWVMKEFSMTDIDLTTLNISGRELCSLNQEDFFQRVPRGEILWSHLELLWKY [R77W], -0.873 ± 0.28.
The result for GYRKEQERLGIPYDPIQWSTDQVLHWVVWVMKEFSMTDIDLTTLNISGRELCSLNQEDFFQRVPRGEILWSHLELLTKY [R77T] reads -0.246 ± 0.048; that for GYRKEQERLGIPYDPIQWSTDQVLHWVVWVMKEFSMTDIDLTTLNISGRELCSLNQEDFFQRVPRGEILWSHLELLQKY [R77Q], -0.299 ± 0.091; that for GYRKEQERLGIPYDPIQWSTDQVLHWVVWVMKEFSMTDIDLTTLNISGRELCSLNQEDFFQRVPRGEILWSHLELLSKY [R77S], -0.311 ± 0.043.
The result for GYRKEQERLGIPYDPIQWSTDQVLHWVVWVMKEFSMTDIDLTTLNISGRELCSLNQEDFFQRVPRGEILWSHLELLLKY [R77L] reads -0.165 ± 0.047; that for GYRKEQERLGIPYDPIQWSTDQVLHWVVWVMKEFSMTDIDLTTLNISGRELCSLNQEDFFQRVPRGEILWSHLELLGKY [R77G], -0.515 ± 0.056.
For the variant GYRKEQERLGIPYDPIQWSTDQVLHWVVWVMKEFSMTDIDLTTLNISGRELCSLNQEDFFQRVPRGEILWSHLELLNKY [R77N], the abundance fitness is -0.119 ± 0.13.
Next, GYRKEQERLGIPYDPIQWSTDQVLHWVVWVMKEFSMTDIDLTTLNISGRELCSLNQEDFFQRVPRGEILWSHLELLMKY [R77M]: -0.348 ± 0.15; GYRKEQERLGIPYDPIQWSTDQVLHWVVWVMKEFSMTDIDLTTLNISGRELCSLNQEDFFQRVPRGEILWSHLELLFKY [R77F]: -0.859 ± 0.2; GYRKEQERLGIPYDPIQWSTDQVLHWVVWVMKEFSMTDIDLTTLNISGRELCSLNQEDFFQRVPRGEILWSHLELLHKY [R77H]: -0.07 ± 0.12.
The result for GYRKEQERLGIPYDPIQWSTDQVLHWVVWVMKEFSMTDIDLTTLNISGRELCSLNQEDFFQRVPRGEILWSHLELLEKY [R77E] reads -0.36 ± 0.11; that for GYRKEQERLGIPYDPIQWSTDQVLHWVVWVMKEFSMTDIDLTTLNISGRELCSLNQEDFFQRVPRGEILWSHLELLKKY [R77K], 0.016 ± 0.081.
Next, GYRKEQERLGIPYDPIQWSTDQVLHWVVWVMKEFSMTDIDLTTLNISGRELCSLNQEDFFQRVPRGEILWSHLELLAKY [R77A]: -0.547 ± 0.056; GYRKEQERLGIPYDPIQWSTDQVLHWVVWVMKEFSMTDIDLTTLNISGRELCSLNQEDFFQRVPRGEILWSHLELLCKY [R77C]: -0.255 ± 0.071; GYRKEQERLGIPYDPIQWSTDQVLHWVVWVMKEFSMTDIDLTTLNISGRELCSLNQEDFFQRVPRGEILWSHLELLVKY [R77V]: -0.343 ± 0.055.
With GYRKEQERLGIPYDPIQWSTDQVLHWVVWVMKEFSMTDIDLTTLNISGRELCSLNQEDFFQRVPRGEILWSHLELLRIY [K78I], the abundance fitness was -0.009 ± 0.16.
The result for GYRKEQERLGIPYDPIQWSTDQVLHWVVWVMKEFSMTDIDLTTLNISGRELCSLNQEDFFQRVPRGEILWSHLELLRLY [K78L] reads -0.135 ± 0.034; that for GYRKEQERLGIPYDPIQWSTDQVLHWVVWVMKEFSMTDIDLTTLNISGRELCSLNQEDFFQRVPRGEILWSHLELLREY [K78E], -0.05 ± 0.067; that for GYRKEQERLGIPYDPIQWSTDQVLHWVVWVMKEFSMTDIDLTTLNISGRELCSLNQEDFFQRVPRGEILWSHLELLRDY [K78D], 0.023 ± 0.1.
Consider GYRKEQERLGIPYDPIQWSTDQVLHWVVWVMKEFSMTDIDLTTLNISGRELCSLNQEDFFQRVPRGEILWSHLELLRAY [K78A], for which the abundance fitness turned out to be 0 ± 0.034.
As to GYRKEQERLGIPYDPIQWSTDQVLHWVVWVMKEFSMTDIDLTTLNISGRELCSLNQEDFFQRVPRGEILWSHLELLRGY [K78G], the abundance fitness amounted to 0.033 ± 0.024.
Next, GYRKEQERLGIPYDPIQWSTDQVLHWVVWVMKEFSMTDIDLTTLNISGRELCSLNQEDFFQRVPRGEILWSHLELLRFY [K78F]: -0.086 ± 0.082.
The result for GYRKEQERLGIPYDPIQWSTDQVLHWVVWVMKEFSMTDIDLTTLNISGRELCSLNQEDFFQRVPRGEILWSHLELLRHY [K78H] reads -0.015 ± 0.11; that for GYRKEQERLGIPYDPIQWSTDQVLHWVVWVMKEFSMTDIDLTTLNISGRELCSLNQEDFFQRVPRGEILWSHLWLLRKY [E74W], -0.336 ± 0.085.
Next, GYRKEQERLGIPYDPIQWSTDQVLHWVVWVMKEFSMTDIDLTTLNISGRELCSLNQEDFFQRVPRGEILWSHLNLLRKY [E74N]: -0.226 ± 0.13.
Turning to GYRKEQERLGIPYDPIQWSTDQVLHWVVWVMKEFSMTDIDLTTLNISGRELCSLNQEDFFQRVPRGEILWSHLVLLRKY [E74V], the abundance fitness was -0.213 ± 0.041.
GYRKEQERLGIPYDPIQWSTDQVLHWVVWVMKEFSMTDIDLTTLNISGRELCSLNQEDFFQRVPRGEILWSHLYLLRKY [E74Y]: the abundance fitness is -0.287 ± 0.1.
The result for GYRKEQERLGIPYDPIQWSTDQVLHWVVWVMKEFSMTDIDLTTLNISGRELCSLNQEDFFQRVPRGEILWSHLKLLRKY [E74K] reads -0.106 ± 0.17.
In the case of GYRKEQERLGIPYDPIQWSTDQVLHWVVWVMKEFSMTDIDLTTLNISGRELCSLNQEDFFQRVPRGEILWSHLSLLRKY [E74S], the abundance fitness was -0.051 ± 0.04.
The result for GYRKEQERLGIPYDPIQWSTDQVLHWVVWVMKEFSMTDIDLTTLNISGRELCSLNQEDFFQRVPRGEILWSHLQLLRKY [E74Q] reads -0.075 ± 0.11; that for GYRKEQERLGIPYDPIQWSTDQVLHWVVWVMKEFSMTDIDLTTLNISGRELCSLNQEDFFQRVPRGEILWSHLILLRKY [E74I], -0.302 ± 0.071; that for GYRKEQERLGIPYDPIQWSTDQVLHWVVWVMKEFSMTDIDLTTLNISGRELCSLNQEDFFQRVPRGEILWSHLTLLRKY [E74T], -0.161 ± 0.094.

(Values after the Human Domainome abundance scans (Beltran et al. 2025).)
